Measurements reported in paper PMC11389852, “Developing deprotectase biocatalysts for synthesis†” (Faraday Discussions, 2024).

Molecular target: the molecule itself
Test: SEC; size exclusion chromatography of recombinant Cbz-ase (Fig. S32); conditions not told in the main text

B1: Sphingomonas paucimobilis Cbz-ase (amidohydrolase), recombinant (enzyme)
chain: MVQPTPTPQSELPGLIARDMEGLMTLYRDLHANPELSLQEVNTAAKLAKRLKAMKFDVTEKVGGTGVVAVMKNGSGPVLLIRADMDGLPVVEQTGLDFASKVRTKTPEGVETGVMHACGHDTHMTAFIETAKLLSSSKDKWKGTLVMILQPAEEVGKGARDMLEDGLYTRFPRPTHAIAFHDAANLQAGVVGYTPGYALANVDSVDIVVKGLGGHGAYPQTTRDPIVLGSRIVTSLQTLVSREQDPQDPAVVTVGSFQAGAKHNIIPDQALLLLTVRSYSDETRAKLIKGIERIARGEAIAAGVPDDKMPVVSVKDEFTPSTYNPPEFAEQMGALLKGHFAEGRVVKTPAVMGGEDFGRFYRADKSINSFIFWVGGVPADKMAAAQAGQITLPSLHSPFWAPEADKVIATASEAMTVLAMDILKKD
stoichiometry N: 4
